In one assay the target is T1, LRP6_(P3E3P4E4) N813A (human, UniProt O75581 629-1244, N813A).
T1 sequence (looked up): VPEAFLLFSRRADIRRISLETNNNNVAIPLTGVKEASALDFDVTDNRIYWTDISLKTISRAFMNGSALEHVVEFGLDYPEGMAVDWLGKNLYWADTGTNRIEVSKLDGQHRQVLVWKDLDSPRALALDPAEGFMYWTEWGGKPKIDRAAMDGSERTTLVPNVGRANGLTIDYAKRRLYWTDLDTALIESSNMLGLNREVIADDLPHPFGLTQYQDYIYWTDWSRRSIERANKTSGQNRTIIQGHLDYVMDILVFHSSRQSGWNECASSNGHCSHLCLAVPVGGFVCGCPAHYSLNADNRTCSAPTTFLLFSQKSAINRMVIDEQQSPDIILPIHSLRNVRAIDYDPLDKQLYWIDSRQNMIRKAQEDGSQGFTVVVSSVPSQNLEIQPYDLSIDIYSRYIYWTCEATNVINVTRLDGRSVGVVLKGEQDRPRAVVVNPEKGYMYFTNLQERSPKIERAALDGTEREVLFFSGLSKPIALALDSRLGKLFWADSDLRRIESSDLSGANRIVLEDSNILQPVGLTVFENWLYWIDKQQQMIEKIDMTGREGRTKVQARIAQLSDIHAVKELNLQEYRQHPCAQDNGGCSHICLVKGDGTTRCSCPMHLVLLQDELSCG
The assay is described as follows: SPR. (In general: Surface plasmon resonance follows binding to a sensor surface in real time, without labels.)

For another assay, the target named is T2, LRP6_(P3E3P4E4) Y706A (human, UniProt O75581 629-1244, Y706A).
T2 sequence (looked up): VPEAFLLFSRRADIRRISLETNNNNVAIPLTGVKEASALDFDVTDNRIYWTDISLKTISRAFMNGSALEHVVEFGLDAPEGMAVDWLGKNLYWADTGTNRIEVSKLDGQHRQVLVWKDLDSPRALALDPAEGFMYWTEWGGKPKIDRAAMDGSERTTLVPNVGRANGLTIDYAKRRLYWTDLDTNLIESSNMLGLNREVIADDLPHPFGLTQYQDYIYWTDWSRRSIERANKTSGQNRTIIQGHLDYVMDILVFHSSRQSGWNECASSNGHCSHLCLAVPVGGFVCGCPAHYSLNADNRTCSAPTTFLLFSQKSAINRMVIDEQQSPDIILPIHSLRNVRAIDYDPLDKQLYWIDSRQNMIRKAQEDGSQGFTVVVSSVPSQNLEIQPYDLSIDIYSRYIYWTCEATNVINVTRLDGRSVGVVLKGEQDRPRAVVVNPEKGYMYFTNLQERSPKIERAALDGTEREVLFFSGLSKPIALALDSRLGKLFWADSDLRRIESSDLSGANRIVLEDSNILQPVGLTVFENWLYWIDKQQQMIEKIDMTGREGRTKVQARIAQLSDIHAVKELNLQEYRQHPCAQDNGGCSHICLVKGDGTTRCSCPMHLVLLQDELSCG
The assay is described as follows: SPR.

The target of another assay is T3, LRP6_(P3E3P4E4) W767A (human, UniProt O75581 629-1244, W767A).
T3 sequence (looked up): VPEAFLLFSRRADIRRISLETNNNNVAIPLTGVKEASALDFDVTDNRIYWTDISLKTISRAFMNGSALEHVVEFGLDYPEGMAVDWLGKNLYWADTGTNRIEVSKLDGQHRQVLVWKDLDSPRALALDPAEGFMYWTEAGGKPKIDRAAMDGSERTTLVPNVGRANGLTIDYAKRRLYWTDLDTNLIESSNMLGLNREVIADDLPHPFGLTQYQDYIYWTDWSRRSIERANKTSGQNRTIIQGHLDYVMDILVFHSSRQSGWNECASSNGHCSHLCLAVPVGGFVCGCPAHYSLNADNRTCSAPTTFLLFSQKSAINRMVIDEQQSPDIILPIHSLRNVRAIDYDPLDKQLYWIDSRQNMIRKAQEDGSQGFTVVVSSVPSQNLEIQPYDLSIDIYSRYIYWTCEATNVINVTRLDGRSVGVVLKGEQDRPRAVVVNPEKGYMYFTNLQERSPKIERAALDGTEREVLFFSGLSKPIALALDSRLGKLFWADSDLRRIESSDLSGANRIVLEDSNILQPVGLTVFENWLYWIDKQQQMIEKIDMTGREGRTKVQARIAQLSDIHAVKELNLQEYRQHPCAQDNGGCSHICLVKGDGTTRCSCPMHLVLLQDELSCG
Put plainly: SPR.

A further assay deals with T4, LRP6_(P3E3P4E4) E708A (human, UniProt O75581 629-1244, E708A).
T4 sequence (looked up): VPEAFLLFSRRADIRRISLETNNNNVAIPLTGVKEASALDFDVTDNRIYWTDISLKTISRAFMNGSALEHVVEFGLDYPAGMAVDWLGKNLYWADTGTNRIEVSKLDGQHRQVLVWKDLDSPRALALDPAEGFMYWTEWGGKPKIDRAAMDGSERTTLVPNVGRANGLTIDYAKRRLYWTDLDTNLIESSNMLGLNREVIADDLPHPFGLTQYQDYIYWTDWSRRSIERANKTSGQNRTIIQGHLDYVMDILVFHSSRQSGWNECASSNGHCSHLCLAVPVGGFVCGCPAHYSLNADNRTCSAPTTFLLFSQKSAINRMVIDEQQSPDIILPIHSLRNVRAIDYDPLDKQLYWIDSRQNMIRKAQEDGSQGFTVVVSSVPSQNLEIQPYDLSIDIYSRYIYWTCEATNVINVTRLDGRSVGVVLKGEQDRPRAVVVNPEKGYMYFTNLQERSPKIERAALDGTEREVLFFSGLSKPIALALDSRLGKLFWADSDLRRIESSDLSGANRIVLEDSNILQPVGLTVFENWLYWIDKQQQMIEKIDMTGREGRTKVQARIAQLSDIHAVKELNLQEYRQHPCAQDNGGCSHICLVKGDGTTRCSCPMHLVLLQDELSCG
The assay is described as follows: SPR.

The target of assay [1] is T5, LRP6_(P3E3P4E4), wild type (human, UniProt O75581 629-1244).
T5 sequence (looked up): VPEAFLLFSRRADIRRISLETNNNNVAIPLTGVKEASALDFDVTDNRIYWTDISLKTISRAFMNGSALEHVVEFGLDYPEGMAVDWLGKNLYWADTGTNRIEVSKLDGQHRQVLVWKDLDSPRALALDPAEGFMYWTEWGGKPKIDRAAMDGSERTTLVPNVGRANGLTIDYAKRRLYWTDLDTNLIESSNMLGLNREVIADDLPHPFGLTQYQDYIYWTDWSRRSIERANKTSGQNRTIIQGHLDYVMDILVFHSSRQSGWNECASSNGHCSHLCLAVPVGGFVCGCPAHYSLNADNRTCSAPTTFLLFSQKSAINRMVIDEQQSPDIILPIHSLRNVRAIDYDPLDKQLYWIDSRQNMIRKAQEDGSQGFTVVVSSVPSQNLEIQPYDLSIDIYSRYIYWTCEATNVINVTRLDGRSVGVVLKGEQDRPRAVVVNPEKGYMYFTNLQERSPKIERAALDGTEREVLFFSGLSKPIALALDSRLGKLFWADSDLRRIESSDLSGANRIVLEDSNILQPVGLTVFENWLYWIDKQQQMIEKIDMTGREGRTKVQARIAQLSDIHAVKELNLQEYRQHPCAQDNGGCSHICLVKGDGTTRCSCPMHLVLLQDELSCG
The assay is described as follows: SPR.

The target of assay [2] is T6, LRP6 ectodomain (LRP6ECD) (human, UniProt O75581 20-1361).
T6 sequence (looked up): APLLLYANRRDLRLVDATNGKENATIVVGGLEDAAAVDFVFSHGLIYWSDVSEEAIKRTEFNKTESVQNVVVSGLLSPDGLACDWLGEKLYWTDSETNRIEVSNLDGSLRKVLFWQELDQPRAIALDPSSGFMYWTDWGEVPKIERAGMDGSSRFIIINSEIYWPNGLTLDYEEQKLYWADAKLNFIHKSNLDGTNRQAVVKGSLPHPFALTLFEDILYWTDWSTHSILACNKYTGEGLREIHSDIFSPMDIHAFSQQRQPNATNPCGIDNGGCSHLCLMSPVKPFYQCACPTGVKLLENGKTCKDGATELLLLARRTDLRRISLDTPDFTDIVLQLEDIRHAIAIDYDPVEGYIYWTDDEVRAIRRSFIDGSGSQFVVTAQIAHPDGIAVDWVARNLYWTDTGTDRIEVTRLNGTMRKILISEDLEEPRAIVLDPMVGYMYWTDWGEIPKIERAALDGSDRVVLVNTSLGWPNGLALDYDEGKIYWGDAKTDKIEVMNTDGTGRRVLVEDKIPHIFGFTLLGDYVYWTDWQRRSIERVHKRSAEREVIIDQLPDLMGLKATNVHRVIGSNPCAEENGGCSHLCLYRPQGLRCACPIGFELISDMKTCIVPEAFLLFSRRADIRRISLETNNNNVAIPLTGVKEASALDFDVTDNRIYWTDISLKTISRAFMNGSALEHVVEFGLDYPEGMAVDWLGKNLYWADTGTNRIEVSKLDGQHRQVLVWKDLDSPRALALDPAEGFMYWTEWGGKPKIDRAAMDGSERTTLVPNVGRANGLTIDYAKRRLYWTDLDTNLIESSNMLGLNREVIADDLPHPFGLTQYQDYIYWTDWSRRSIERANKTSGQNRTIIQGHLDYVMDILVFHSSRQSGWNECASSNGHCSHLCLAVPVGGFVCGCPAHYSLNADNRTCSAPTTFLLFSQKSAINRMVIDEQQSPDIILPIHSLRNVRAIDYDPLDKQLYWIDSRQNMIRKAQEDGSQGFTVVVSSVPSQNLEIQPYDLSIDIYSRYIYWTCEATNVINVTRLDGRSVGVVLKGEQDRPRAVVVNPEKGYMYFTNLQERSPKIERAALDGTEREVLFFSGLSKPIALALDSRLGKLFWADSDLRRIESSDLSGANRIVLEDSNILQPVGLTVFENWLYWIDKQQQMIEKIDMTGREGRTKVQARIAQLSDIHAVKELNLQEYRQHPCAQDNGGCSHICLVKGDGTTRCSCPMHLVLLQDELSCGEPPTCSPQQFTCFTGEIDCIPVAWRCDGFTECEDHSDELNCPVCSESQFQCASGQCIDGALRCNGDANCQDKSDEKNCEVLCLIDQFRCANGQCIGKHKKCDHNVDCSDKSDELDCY
The assay is described as follows: SEC-MALS.

B1: Dickkopf 1 (Dkk1) (ligand, human, UniProt O94907 32-266, looked up)
chain: TLNSVLNSNAIKNLPPPLGGAAGHPGSAVSAAPGILYPGGNKYQTIDNYQPYPCAEDEECGTDEYCASPTRGGDAGVQICLACRKRRKRCMRHAMCCPGNYCKNGICVSSDQNHFRGEIEETITESFGNDHSTLDGYSRRTTLSSKMYHTKGQEGSVCLRSSDCASGLCCARHFWSKICKPVLKEGQVCTKHRRKGSHGLEIFQRCYCGEGLSCRIQKDHHQASNSSRLHTCQRH
One may read the Kd as the constant that tells how readily two partners part at equilibrium. A high value points to weaker binding. Take B1: the binding result with LRP6_(P3E3P4E4) N813A, with LRP6_(P3E3P4E4) Y706A, in the assay with LRP6_(P3E3P4E4) W767A and in the assay with LRP6_(P3E3P4E4) E708A was “binds” throughout. Also, the affinity in assay [1], expressed as Kd, was 58 nM.

B2: human Mesd with an internal Flag tag (co-expressed with LRP6ECD) (natural protein, UniProt Q14696-1 34-234, looked up)
chain: AEGSPGTPDESTPPPRKKKKDIRDYNDADMARLLEQWEKDDDIEEGDLPEHKRPSAPVDFSKIDPSKPESILKMTKKGKTLMMFVTVSGSPTEKETEEITSLWQGSLFNANYDVQRFIVGSDRAIFMLRDGSYAWEIKDFLVGQDRCADVTLEGQVYPGKGGGSKEKNKTKQDKGKKKKEGDLKSRSSKEENRAGNKREDL
The term stoichiometry N denotes the number of molecules, sites or subunits per partner or assembly. As to B2, the “stoichiometry N” value in assay [2] was found to be 1.

Values taken from PMC3564486 (Developmental cell, 2011).
